Laboratory results as given in patent publication US5618790A, “Protease mediated drug delivery system” (Queen's University at Kingston, priority 1994, dated 1997).
Starred links: 1 amine or outer side, 2 acyl side, 3 side chain; linkers in the order of their positions; H or OH if unused. Positions of bridges follow the written chain, without caps; N, C: chain ends. Residues, ends and D or L forms follow the SMILES beside them. Chains are numbered I, II in the order given. X1 = CCC1=C(C)c2cc3[nH]c(cc4nc(cc5[nH]c(cc1n2)c(C)c5CCC(=O)[*:1])C(CCC(=O)[*:2])=C4C)c(C)c3CC

Experiments:
[1] = Solubility of the purified compound; assay type: physicochemical
Text: The purified compound was a purple-red powder that was quite soluble in water in neutral pH, in isotonic saline for injection (U.S.P.), and in fresh heparinized human blood and plasma. Aqueous solutions were strongly fluorescent when exposed to 410 nm light.

[2] = Toxicity after intraperitoneal injection into mice; assay type: in vivo; conditions: intraperitoneally, dosages up to 20 mg/kg body weight
Description: The porphyrin compound of Example 1 was injected intraperitoneally into mice at dosages up to 20 mg/kg body weight.

[3] = Fluorescence in heparinized whole blood and plasma; assay type: in vitro ADME; conditions: heparinized whole blood and plasma samples; spectrophotofluorometer
Description: Aliquots of the porphyrin compound of Example 1 were added to heparinized whole blood and plasma samples which were then examined by spectrophotofluorometer.

Clostridium perfringens = conditions: mouse, in vivo, 20 mg/kg

CCC1=C(C)c2cc3[nH]c(cc4nc(cc5[nH]c(cc1n2)c(C)c5CCC(=O)NCC(=O)N1CCC[C@H]1C(=O)N[C@@H](CC(C)C)C(=O)NCC(=O)N1CCC[C@H]1C(=O)N[C@@H](C)C(=O)N[C@@H](CCCCN)C(=O)N[C@@H](CCCCN)C(=O)N[C@@H](CCCCN)C(=O)N[C@@H](CCCCN)C(=O)O)C(CCC(=O)NCC(=O)N1CCC[C@H]1C(=O)N[C@@H](CC(C)C)C(=O)NCC(=O)N1CCC[C@H]1C(=O)N[C@@H](C)C(=O)N[C@@H](CCCCN)C(=O)N[C@@H](CCCCN)C(=O)N[C@@H](CCCCN)C(=O)N[C@@H](CCCCN)C(=O)O)=C4C)c(C)c3CC [porphyrin compound of Example 1, mesoporphyrin IX (Gly--Pro--Leu--Gly--Pro--Ala--Lys--Lys--Lys--Lys)2] (I: GPLGPAKKKK-OH / II: GPLGPAKKKK-OH; linker I:N-II:N via X1)
solubility ([1]; fresh heparinized human blood and plasma): quite soluble
solubility ([1]; isotonic saline for injection (U.S.P.)): quite soluble
solubility ([1]; water in neutral pH): quite soluble
toxic effects [2]: No toxic effects were observed
effect on fluorescence intensity (stability of the collagenase sensitive peptide) [3]: No effect on fluorescence intensity
increase of porphyrin fluorescence relative to the background fluorescence (factor) (Clostridium perfringens): three
